Reference: the supplement of paper PMC10065799, “High-throughput profiling of sequence recognition by tyrosine kinases and SH2 domains using bacterial peptide display” (eLife, 2023)

What was measured:
[1] = molecular target: EPHB1 (UniProt P54762); assay: phosphorylation enrichment, bacterial display (enrichment ratio); higher = better substrate or ligand; peptides without Tyr show the background
[2] = molecular target: EPHB2 (UniProt P29323); assay: as above
[3] = tested on: Fer (mouse); assay: as above
[4] = molecular target: Hck (UniProt P08631); assay: as above
Chain of Hck (P08631 whole entry, looked up): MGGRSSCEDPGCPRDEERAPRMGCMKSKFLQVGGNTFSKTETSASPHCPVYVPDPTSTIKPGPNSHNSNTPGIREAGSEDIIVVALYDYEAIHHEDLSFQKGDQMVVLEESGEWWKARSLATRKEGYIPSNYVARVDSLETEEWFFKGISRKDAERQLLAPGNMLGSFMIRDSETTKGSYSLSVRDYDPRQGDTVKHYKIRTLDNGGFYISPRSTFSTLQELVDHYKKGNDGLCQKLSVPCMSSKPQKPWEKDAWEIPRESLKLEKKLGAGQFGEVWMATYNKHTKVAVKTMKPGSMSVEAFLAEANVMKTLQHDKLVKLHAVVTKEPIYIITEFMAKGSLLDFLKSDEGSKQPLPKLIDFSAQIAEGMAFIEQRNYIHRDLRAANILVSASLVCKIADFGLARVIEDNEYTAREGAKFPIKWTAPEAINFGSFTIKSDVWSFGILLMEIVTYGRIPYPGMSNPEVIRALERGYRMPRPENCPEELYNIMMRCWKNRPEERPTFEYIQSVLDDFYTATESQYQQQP

[5] = molecular target: Fes (UniProt P07332); assay: as above
[6] = molecular target: MERTK (UniProt Q12866); assay: as above
Chain of MERTK (Q12866 whole entry, looked up): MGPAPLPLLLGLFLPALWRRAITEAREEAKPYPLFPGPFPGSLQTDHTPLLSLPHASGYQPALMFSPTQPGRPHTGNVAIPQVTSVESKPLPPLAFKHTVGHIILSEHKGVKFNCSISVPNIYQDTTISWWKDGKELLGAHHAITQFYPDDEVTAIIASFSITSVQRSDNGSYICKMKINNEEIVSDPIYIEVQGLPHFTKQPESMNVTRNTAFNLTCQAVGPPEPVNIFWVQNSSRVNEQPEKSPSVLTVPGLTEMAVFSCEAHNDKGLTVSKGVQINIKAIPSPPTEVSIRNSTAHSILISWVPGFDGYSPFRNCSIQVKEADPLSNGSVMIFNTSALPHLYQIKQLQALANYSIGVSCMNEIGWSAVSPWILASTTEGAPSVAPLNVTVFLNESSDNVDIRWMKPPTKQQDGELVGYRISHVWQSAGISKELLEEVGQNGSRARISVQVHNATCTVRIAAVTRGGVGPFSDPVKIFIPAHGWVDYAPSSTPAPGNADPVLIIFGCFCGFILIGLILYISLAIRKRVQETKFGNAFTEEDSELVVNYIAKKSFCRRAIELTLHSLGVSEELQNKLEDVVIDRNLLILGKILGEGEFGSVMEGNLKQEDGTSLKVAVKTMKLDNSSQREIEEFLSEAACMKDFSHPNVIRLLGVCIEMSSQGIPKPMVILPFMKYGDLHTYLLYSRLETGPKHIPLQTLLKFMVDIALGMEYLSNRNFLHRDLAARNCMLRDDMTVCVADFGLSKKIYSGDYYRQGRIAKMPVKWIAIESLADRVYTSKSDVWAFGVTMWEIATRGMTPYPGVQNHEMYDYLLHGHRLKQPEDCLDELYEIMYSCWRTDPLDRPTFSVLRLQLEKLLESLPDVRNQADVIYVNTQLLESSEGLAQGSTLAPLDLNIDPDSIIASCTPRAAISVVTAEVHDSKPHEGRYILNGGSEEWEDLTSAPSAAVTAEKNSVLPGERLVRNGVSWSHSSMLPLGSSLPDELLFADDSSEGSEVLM

[7] = molecular target: FGFR1 (UniProt P11362); assay: as above
[8] = molecular target: Fyn (UniProt P06241); assay: as above
[9] = tested on: AncSZ; assay: as above
[10] = tested on: c-Src; assay: as above
[11] = molecular target: FGFR3 (UniProt P22607); assay: as above
Chain of FGFR3 (P22607 whole entry, looked up): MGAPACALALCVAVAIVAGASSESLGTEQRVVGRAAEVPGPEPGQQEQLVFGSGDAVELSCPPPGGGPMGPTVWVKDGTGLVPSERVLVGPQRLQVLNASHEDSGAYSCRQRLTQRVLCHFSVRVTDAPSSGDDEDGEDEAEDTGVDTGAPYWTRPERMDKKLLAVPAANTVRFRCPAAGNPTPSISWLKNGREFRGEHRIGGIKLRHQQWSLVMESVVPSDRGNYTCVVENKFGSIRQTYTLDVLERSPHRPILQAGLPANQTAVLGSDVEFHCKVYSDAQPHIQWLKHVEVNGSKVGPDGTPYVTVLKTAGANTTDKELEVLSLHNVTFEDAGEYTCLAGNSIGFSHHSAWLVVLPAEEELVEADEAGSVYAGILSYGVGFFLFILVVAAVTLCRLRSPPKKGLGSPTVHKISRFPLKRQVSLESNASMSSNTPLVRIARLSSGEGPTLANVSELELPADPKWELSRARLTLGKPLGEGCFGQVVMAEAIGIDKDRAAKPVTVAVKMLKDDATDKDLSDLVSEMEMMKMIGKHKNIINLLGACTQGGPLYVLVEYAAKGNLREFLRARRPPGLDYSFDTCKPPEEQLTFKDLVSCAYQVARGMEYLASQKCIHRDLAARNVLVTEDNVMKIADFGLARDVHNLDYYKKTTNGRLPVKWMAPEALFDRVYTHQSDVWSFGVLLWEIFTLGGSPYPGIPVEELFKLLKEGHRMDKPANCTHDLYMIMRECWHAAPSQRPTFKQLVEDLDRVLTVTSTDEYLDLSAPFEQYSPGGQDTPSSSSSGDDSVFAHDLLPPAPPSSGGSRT

[12] = molecular target: Jak2 (UniProt O60674); assay: as above
[13] = tested on: c-Abl (mouse); assay: as above
[14] = molecular target: SHP2-C SH2; assay: SH2 binding enrichment of the phosphorylated peptide, bacterial display (enrichment ratio); higher = better substrate or ligand; peptides without Tyr show the background
[15] = molecular target: c-Src SH2; assay: as above
[16] = molecular target: Grb2 SH2 (UniProt P62993); assay: as above
Chain of Grb2 SH2 (P62993 whole entry, looked up, the tested form may be a part): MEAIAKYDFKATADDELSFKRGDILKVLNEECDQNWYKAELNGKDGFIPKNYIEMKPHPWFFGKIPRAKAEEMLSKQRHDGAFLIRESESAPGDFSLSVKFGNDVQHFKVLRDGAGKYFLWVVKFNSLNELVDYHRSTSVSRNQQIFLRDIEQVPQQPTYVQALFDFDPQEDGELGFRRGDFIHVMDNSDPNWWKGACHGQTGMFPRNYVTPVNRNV
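Throughout, for SH2 binding enrichment of the phosphorylated peptide, bacterial display: peptide library displayed on the E. coli surface as eCPX fusions, selected cells deep-sequenced, score is each peptide's frequency after selection divided by its frequency in the input.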
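Throughout, for phosphorylation enrichment, bacterial display: 11-residue human phosphosite peptides and single-mutation variants displayed on the E. coli surface, counted by deep sequencing, each peptide's frequency after selection divided by its frequency in the unselected input library; frequency after pTyr selection over input frequency; kinase dosed for 20-30% of maximal phosphorylation in three min.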

Chain of EPHB2 (P29323 whole entry, looked up): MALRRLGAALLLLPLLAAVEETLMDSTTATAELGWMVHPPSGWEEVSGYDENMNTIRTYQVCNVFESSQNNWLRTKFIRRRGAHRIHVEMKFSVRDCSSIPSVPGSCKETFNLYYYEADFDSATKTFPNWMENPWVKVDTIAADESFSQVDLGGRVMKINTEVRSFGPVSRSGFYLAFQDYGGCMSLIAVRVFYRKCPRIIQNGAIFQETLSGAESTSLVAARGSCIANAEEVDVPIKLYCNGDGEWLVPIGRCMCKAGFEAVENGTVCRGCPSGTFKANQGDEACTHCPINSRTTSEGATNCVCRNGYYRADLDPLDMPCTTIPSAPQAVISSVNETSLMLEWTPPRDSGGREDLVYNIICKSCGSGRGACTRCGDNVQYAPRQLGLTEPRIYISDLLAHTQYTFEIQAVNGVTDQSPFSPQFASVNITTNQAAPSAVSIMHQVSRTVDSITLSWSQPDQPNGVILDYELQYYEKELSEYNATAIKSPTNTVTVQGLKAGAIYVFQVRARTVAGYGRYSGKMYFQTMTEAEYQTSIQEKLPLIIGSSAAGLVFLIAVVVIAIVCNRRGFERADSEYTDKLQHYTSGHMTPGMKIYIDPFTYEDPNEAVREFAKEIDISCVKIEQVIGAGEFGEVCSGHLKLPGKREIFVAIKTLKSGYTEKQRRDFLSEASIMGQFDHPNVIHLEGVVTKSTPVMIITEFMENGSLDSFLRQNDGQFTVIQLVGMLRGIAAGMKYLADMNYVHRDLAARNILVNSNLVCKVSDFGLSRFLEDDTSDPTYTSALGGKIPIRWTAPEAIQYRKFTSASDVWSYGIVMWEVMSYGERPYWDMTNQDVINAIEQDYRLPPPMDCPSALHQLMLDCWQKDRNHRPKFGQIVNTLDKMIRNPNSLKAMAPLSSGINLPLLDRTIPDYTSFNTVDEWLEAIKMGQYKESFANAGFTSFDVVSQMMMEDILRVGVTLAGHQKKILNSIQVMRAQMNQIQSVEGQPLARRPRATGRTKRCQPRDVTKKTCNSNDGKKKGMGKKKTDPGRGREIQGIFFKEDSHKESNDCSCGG
Chain of EPHB1 (P54762 whole entry, looked up): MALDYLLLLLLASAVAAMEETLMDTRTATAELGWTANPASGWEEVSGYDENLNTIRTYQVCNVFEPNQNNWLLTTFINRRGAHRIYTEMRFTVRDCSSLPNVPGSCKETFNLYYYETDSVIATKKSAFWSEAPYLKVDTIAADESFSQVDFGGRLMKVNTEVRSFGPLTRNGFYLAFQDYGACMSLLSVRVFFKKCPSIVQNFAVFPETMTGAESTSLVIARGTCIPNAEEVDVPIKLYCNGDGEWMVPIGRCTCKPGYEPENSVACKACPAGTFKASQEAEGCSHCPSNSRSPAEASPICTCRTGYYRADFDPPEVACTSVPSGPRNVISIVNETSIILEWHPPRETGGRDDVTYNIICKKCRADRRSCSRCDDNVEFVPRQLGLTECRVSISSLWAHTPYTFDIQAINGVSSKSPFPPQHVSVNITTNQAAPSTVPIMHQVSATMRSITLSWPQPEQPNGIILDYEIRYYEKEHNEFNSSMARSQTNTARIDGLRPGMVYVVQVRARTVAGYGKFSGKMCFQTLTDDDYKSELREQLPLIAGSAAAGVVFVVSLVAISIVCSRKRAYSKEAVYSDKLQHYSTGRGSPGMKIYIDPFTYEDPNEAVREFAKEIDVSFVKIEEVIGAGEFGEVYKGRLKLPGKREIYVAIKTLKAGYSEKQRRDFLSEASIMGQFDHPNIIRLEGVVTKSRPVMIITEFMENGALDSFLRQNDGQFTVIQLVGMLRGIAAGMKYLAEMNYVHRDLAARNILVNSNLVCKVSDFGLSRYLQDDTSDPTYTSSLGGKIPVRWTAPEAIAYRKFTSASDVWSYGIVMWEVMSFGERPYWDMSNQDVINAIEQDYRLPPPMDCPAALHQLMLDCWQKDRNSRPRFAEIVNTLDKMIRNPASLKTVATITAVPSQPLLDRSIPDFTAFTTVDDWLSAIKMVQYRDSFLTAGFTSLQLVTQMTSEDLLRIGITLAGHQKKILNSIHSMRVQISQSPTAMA

Sequence | phosphorylation enrichment [1] | phosphorylation enrichment [2] | phosphorylation enrichment [3] | phosphorylation enrichment [4] | phosphorylation enrichment [5] | phosphorylation enrichment [6] | phosphorylation enrichment [7] | phosphorylation enrichment [8] | phosphorylation enrichment [9] | phosphorylation enrichment [10] | phosphorylation enrichment [11] | phosphorylation enrichment [12] | phosphorylation enrichment [13] | SH2 binding enrichment [14] | SH2 binding enrichment [15] | SH2 binding enrichment [16]
RAFSWYQHQRA [NDST1_Y714_YF] | 0.74 | 0.855 | 0.794 | 0.611 | 1.72 | 0.424 | 0.763 | 0.769 | 1.54 | 0.489 | 1 | 1.25 | 1.09 | 1.23 | 0.934 | 1.23
RAVLLYEFVGK [NATD1_Y45_YF] | 23.8 | 27.1 | 14.9 | 8.33 | 3.12 | 12.7 | 2.12 | 5.5 | 2.71 | 5.67 | 2.29 | 1.56 | 1.54 | 1.5 | 0.972 | 1.57
RCFVFYFSFLL [PTEN_Y177_R173C_YF] | 0.353 | 0.434 | 0.432 | 0.426 | 0.626 | 0.38 | 0.506 | 0.355 | 0.59 | 0.591 | 0.613 | 0.821 | 0.732 | 1.78 | 1.27 | 1.97
RDLTHYLMKIL [ACTG1_Y188_D187H] | 1.05 | 0.804 | 0.64 | 1.06 | 1.12 | 0.583 | 0.665 | 0.756 | 1.27 | 0.463 | 0.85 | 0.477 | 0.692 | 1.54 | 1.6 | 1.64
RDMMDYMPQGV [CYP21A2_Y259_L261P] | 0.921 | 1.28 | 0.937 | 0.578 | 1.36 | 0.681 | 0.799 | 0.636 | 1.41 | 0.596 | 0.823 | 0.986 | 0.912 | 0.8 | 0.391 | 0.909
REEKNYKLKET [BCLAF1_Y459] | 0.691 | 0.799 | 1.3 | 0.861 | 1.21 | 1.14 | 0.733 | 0.843 | 0.996 | 1.28 | 0.714 | 1.5 | 1.16 | 0.956 | 0.627 | 1.16
REGDKYVSHGA [ASS1_Y113_A111D] | 0.794 | 0.622 | 0.486 | 0.61 | 1.03 | 0.744 | 0.731 | 0.505 | 0.938 | 0.643 | 0.58 | 0.83 | 0.873 | 1.01 | 0.407 | 0.623
REIIAYQPFGK [PRKCG_Y529_P524R_YF] | 0.51 | 0.385 | 0.291 | 0.438 | 0.635 | 0.305 | 0.305 | 0.499 | 0.524 | 0.466 | 0.398 | 0.584 | 0.705 | 0.951 | 1.01 | 1.19
RELGEYALAEY [ALDH1A3_Y492] | 0.858 | 0.785 | 0.74 | 0.765 | 2.76 | 0.55 | 0.694 | 0.614 | 1.44 | 1.14 | 0.714 | 1.81 | 1.67 | 0.691 | 1.18 | 0.707
RELGEYGLQAY [ALDH2_Y497] | 0.699 | 0.754 | 0.949 | 0.824 | 1.61 | 0.562 | 0.676 | 0.822 | 1.55 | 0.696 | 0.977 | 1.32 | 0.962 | 0.749 | 0.451 | 0.745
RENGPYYASYP [GDAP2_Y487_T489A] | 1.58 | 5.74 | 0.691 | 5.46 | 0.869 | 7.74 | 2.29 | 8.25 | 1.04 | 7.26 | 1.92 | 0.661 | 1.94 | 1.13 | 0.705 | 0.822
REVPVYISEDS [SYNM_Y460_G462S] | 1.3 | 1.07 | 1.2 | 1.09 | 2.71 | 1.53 | 1.16 | 0.89 | 2.34 | 1.56 | 1.57 | 3.51 | 2.66 | 0.632 | 0.551 | 1.07
RFLRGYRQYAY [HLA-A_Y137_D140Y] | 1.33 | 0.752 | 0.577 | 0.634 | 1.19 | 0.846 | 0.77 | 1.29 | 1.61 | 1.56 | 0.669 | 4.7 | 1.56 | 0.602 | 0.322 | 0.92
RGFDTYFGFLL [ARSB_Y165_YF] | 4.25 | 4.31 | 4.06 | 6.53 | 1.53 | 5.24 | 3.4 | 8.78 | 1.68 | 6.93 | 3.25 | 4.64 | 1.14 | 0.828 | 0.578 | 0.899
RGSQQYRALPV [TUBB8_Y281_T285P] | 0.533 | 0.563 | 0.434 | 0.388 | 0.686 | 0.525 | 0.803 | 0.655 | 0.618 | 0.588 | 0.546 | 0.789 | 0.694 | 1.49 | 0.646 | 0.944
RGYRVCYTPDS [PTPRF_Y450_Y450C] | 0.892 | 0.909 | 0.71 | 0.618 | 1.61 | 0.634 | 0.784 | 0.602 | 1.32 | 0.985 | 1.36 | 1.86 | 1.16 | 0.687 | 0.41 | 0.534
RHRSGYVLIAM [EFR3A_Y73] | 0.307 | 0.708 | 1.1 | 0.638 | 1.37 | 0.475 | 0.737 | 0.605 | 1.31 | 0.284 | 0.773 | 0.79 | 0.528 | 2.72 | 1.73 | 2.09

Sequence | phosphorylation enrichment [1] | phosphorylation enrichment [2] | phosphorylation enrichment [3] | phosphorylation enrichment [4] | phosphorylation enrichment [5] | phosphorylation enrichment [6] | phosphorylation enrichment [7] | phosphorylation enrichment [8] | phosphorylation enrichment [9] | phosphorylation enrichment [10] | phosphorylation enrichment [11] | phosphorylation enrichment [12] | phosphorylation enrichment [13] | SH2 binding enrichment [14] | SH2 binding enrichment [15] | SH2 binding enrichment [16]
RKIMGYSIRTI [IDS_Y490_I485R] | 0.676 | 0.556 | 0.619 | 0.624 | 0.796 | 0.535 | 0.664 | 0.591 | 0.699 | 0.666 | 0.524 | 0.62 | 0.759 | 0.718 | 0.654 | 0.944
RLLRGYDQSAY [HLA-C_Y137] | 0.569 | 0.465 | 0.52 | 0.527 | 0.826 | 0.36 | 0.394 | 0.465 | 0.57 | 0.416 | 0.593 | 0.576 | 0.468 | 0.83 | 0.645 | 0.858
RLLRGYDQYAY [HLA-B_Y137_H137Y] | 0.636 | 0.821 | 0.476 | 0.575 | 0.924 | 0.596 | 0.548 | 0.518 | 0.865 | 0.738 | 0.508 | 0.844 | 0.659 | 0.954 | 2.15 | 1.26
RLLVLYPWTQR [HBB_Y36_V35L] | 0.681 | 0.98 | 0.594 | 0.782 | 1.26 | 0.541 | 0.886 | 0.791 | 1.42 | 0.366 | 0.987 | 0.702 | 0.558 | 1.75 | 1.52 | 1.77
RLLVVYPWTER [HBB_Y36_Q40E] | 0.345 | 0.572 | 0.37 | 0.618 | 1.21 | 0.324 | 0.513 | 0.472 | 1.16 | 0.52 | 0.58 | 1.03 | 0.612 | 2.29 | 1.55 | 2.1
RLVTRYIFNRE [HLA-DQB1_Y62_Y58L_YF] | 0.477 | 0.415 | 0.54 | 0.445 | 0.815 | 0.652 | 0.579 | 0.553 | 0.639 | 0.462 | 0.695 | 0.556 | 0.51 | 0.728 | 0.5 | 0.851
RPSELYFSKIG [SMG1_Y2253_YF] | 0.49 | 0.457 | 0.421 | 1.74 | 0.671 | 0.791 | 0.641 | 0.546 | 0.605 | 0.623 | 0.654 | 0.51 | 0.687 | 0.919 | 0.557 | 1.04
RPSELYYSKIS [SMG1_Y2253_G2258S] | 2.17 | 1.31 | 2.25 | 11.1 | 1.02 | 14.6 | 5.05 | 1.4 | 1.79 | 2.96 | 3.5 | 1.05 | 0.926 | 2.51 | 5.74 | 1.06
RPYVYYYSYLL [PTEN_Y177_R173P] | 2.64 | 1.39 | 0.931 | 2.09 | 1.6 | 5.81 | 7.24 | 1.42 | 1.51 | 2.3 | 4.57 | 2.84 | 1.4 | 1.12 | 0.539 | 0.841
RQQQDYWLKDV [ANPEP_Y600_I603K] | 0.484 | 0.556 | 0.495 | 0.322 | 0.911 | 0.52 | 0.71 | 0.305 | 1.07 | 0.564 | 0.741 | 1.25 | 0.662 | 0.635 | 0.675 | 1.01
RRERDYTNLPS [CSF1R_Y923] | 0.447 | 0.548 | 0.474 | 0.62 | 0.561 | 0.558 | 0.493 | 0.651 | 2.88 | 0.668 | 0.541 | 0.628 | 0.692 | 0.485 | 0.486 | 0.519
RRNTYYASIAK [ACADM_Y353] | 0.702 | 0.541 | 0.611 | 0.853 | 0.889 | 1.13 | 0.536 | 0.762 | 0.902 | 0.81 | 0.76 | 1.12 | 0.939 | 1.66 | 0.953 | 0.889
RRQDLYSARDL [SART1_Y249] | 0.576 | 0.367 | 0.401 | 5.63 | 0.744 | 1.55 | 0.586 | 0.972 | 1.45 | 1.21 | 0.615 | 0.663 | 0.525 | 0.767 | 0.402 | 1.14
RRSKMYLKTRS [LPL_Y329_S325R] | 0.448 | 0.845 | 0.514 | 0.602 | 0.709 | 0.659 | 0.599 | 0.708 | 0.728 | 1.03 | 0.571 | 0.889 | 0.578 | 0.647 | 0.319 | 0.981
RSDEDYLFREE [POR_Y573_YF] | 0.865 | 0.964 | 0.891 | 0.983 | 2.36 | 0.592 | 0.914 | 0.768 | 1.47 | 0.836 | 1.34 | 1.66 | 1.31 | 0.642 | 0.477 | 0.847
RSFSPCDFQPC [TNS1_Y796_Y796C_YF] | 0.54 | 0.991 | 0.584 | 0.786 | 0.972 | 0.643 | 0.672 | 0.783 | 0.83 | 0.583 | 0.822 | 0.705 | 0.427 | 0.602 | 0.693 | 0.945
